According to paper PMC5551644 (Biochemistry, 2016):
Like-named read-outs stand apart in the source and are kept apart here.

What was measured:
Test in all cases: SPR
[1] = biological target: T1, TGF-β type II receptor extracellular domain (UniProt P37173 23-166)
[2] = biological target: T1, TGF-β type II receptor extracellular …; remark: listed apart in the source
[3] = biological target: T1, TGF-β type II receptor extracellular …; remark: listed apart in the source

T1 sequence (P37173 23-166): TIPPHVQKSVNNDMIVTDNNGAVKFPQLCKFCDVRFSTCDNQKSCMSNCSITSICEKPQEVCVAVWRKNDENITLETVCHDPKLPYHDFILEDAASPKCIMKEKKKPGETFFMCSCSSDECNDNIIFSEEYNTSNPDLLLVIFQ

B1: Transforming growth factor β2 (TGF-β2), recombinant human (ligand, UniProt P61812 303-414, looked up)
chain: ALDAAYCFRNVQDNCCLRPLYIDFKRDLGWKWIHEPKGYNANFCAGACPYLWSSDTQHSRVLSLYNTINPEASASPCCVSQDLEPLTILYYIGKTPKIEQLSNMIVKSCKCS
modifications: biotinylated for SPR (EZ-Link Amine-PEG3-biotin with EDC/Sulfo-NHS; for the experiments of Table S1 sulfo-NHS-LC-LC-Biotin)
For B1, the Kd [1] was 9.4 ± 2.2 µM, the Kd [2] was 2.9 ± 1.1 µM and the Kd [3] was 4.6 ± 0.7 µM.
